Tested on: MS2 coat protein
Test: apparent KD of MS2 coat protein; designed switch direction (-1 OFF switch, 1 ON switch): -1; higher = weaker reporter binding
How it was run: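 RNA switches sharing common flanks were transcribed by stalled E. coli RNA polymerase on Illumina chips. A doubling series of SNAP-549-labelled MS2 coat protein, from 0.7 or 1.5 nM to 3 µM, was applied in Tris-HCl pH 7.5 buffer with KCl, MgCl2, BSA, DTT, tRNA and Tween-20. Each step lasted 0.8–1.5 h at the bottom of the series and 10–20 min at the top. Normalised cluster fluorescence was curve-fitted, giving apparent KD as the per-design median over clusters.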

[1] = Eterna round: R95, input ligand: microRNA oligo, concentration not stated
[2] = input ligand: microRNA oligo, concentration not stated
[3] = Eterna round: R95, input ligand: FMN 200 uM
[4] = Eterna round: R95, input ligand: none

## UUCAUGUGAGGAUAUAGUACUCUUUCUAUUAUUAUUGAGUAUUAGAAGGCACAUGAGGAUCACCCAUGUAGUAC [Ex4 - 3 - 41] (puzzle: Exclusion 4)
[1]
  apparent KD of MS2 coat protein: 28.1 nM

## GUAAUUAUAUAGGAUAUCGAACUUAUUAUUUAACGAGAAGGAUGAACAUGAGGAUCACCCAUGUGGUAUCAUGG [JL-ex6-3.06] (puzzle: Exclusion 6)
[1]
  apparent KD of MS2 coat protein: 175 nM

## AGCUGUGGCCGAGGAUAUGACAUGAGGAUCACCCAUGUACAUAAUUAGGCCUGGUAACAGGCUCUUCAGAAGGCGGUCUCAGCA [Eli eng2 - 006] (Eterna round: R96, puzzle: Exclusion NG 2)
Input ligand: FMN 200 uM
  apparent KD of MS2 coat protein: 7.27 nM
[2]
  apparent KD of MS2 coat protein: 6.45 nM
Input ligand: none
  apparent KD of MS2 coat protein: 11.8 nM

## GCUCCAGGAGGAUAUGCAUUCGAAAACAUGAGGAUCACCCAUGUAGGUGUCCUCGUGCGAGCAGAAGGCCUAAAAC [Rebebiso] (Eterna round: R97, puzzle: Exclusion 5)
Input ligand: FMN 200 uM
  apparent KD of MS2 coat protein: 145 nM
Input ligand: none
  apparent KD of MS2 coat protein: 208 nM

## UUAAUGAUUGUGAGGAUAUUUCAUAGAUAGAUAUUAGAGAAGGUACAUGAGGAUCACCCAUGUGUGAUUAGAGA [Brourd's EX4 #71] (Eterna round: R97, puzzle: Brourd's mod of Exclusion 4)
Input ligand: FMN 200 uM
  apparent KD of MS2 coat protein: 89.7 nM
Input ligand: none
  apparent KD of MS2 coat protein: 93.5 nM

## UAAUUAAGUGUGAGGAUAUGCUGGUCCUUGGAUCAGCAGAAGGCACAUGAGGAUCACCCAUGUAAUAUAUAUAU [Mat - Exclusion 4 - JL Mod - D53] (puzzle: Brourd's mod of Exclusion 4)
[3]
  apparent KD of MS2 coat protein: 361 nM
[1]
  apparent KD of MS2 coat protein: 108 nM
[4]
  apparent KD of MS2 coat protein: 104 nM

## GUGUAGUCAGGAUAUACAUAGGAAGAGAAGAGAAGAUAAGCACAUGAGGAUCACCCAUGUAGAAGGGACAGUGU [Excluse me!! 3 - Jieux - Exclusion 2] (puzzle: Exclusion 2)
[1]
  apparent KD of MS2 coat protein: 57.4 nM

## CCGCUCCGUGUAGGAUAUUGGCCUGCUCUGGGCCGAGAAGGACAUGAGGAUCACCCAUGUAUGUUAUUAUCACGCGUGGCGCAU [Design 79] (Eterna round: R96, puzzle: Exclusion NG 1)
Input ligand: FMN 200 uM
  apparent KD of MS2 coat protein: 31.6 nM
[2]
  apparent KD of MS2 coat protein: 14.5 nM
Input ligand: none
  apparent KD of MS2 coat protein: 21.6 nM

## UUGAAGUCAUCAGGAUAUAGUAUUAAAGACAUUUAUUUUUUCAUACAUGAGGAUCACCCAUGUCGCUAGAAGGGAUUAUAGAUU [JR_ExcNG2_Sub079] (Eterna round: R96, puzzle: Exclusion NG 2)
[2]
  apparent KD of MS2 coat protein: 38.4 nM

## ACGCAUUGCCUUUGGUAGUGCGUAACAUGAGGAUCACCCAUGUAGGAUAUGGUAGGCUUUGCUUACCAGAAGGACAUUAUAAAC [Mat - Exclusion NG 3 - Mod of JL - D9] (Eterna round: R96, puzzle: Exclusion NG 3)
[2]
  apparent KD of MS2 coat protein: 21.9 nM

## UAUAUAUAGUAAGGAUAUGUAUUAAUUUUGUAAACAGAAGGUACUGACAUGAGGAUCACCCAUGUUUUAGUGUGGGCAUGUAGA [JMF's solution 87] (Eterna round: R96, puzzle: Exclusion NG 1)
[2]
  apparent KD of MS2 coat protein: 111 nM

## ACCUCACUUGAGGAUCACCCAAGUCAGGAUAUACUCGUUUGCCGAAAGACGCGGCAUUGUAGAAGGGACGGGUU [Raortiza] (Eterna round: R97, puzzle: Exclusion 1)
Input ligand: FMN 200 uM
  apparent KD of MS2 coat protein: 26.6 nM
Input ligand: none
  apparent KD of MS2 coat protein: 15.5 nM

## CCGGAAAAGGAGGAUAUAGGAGUCGAUAGACACCUAGAAGGUCUGACAUGAGGAUCACCCAUGUGUCCUACCGG [Fiskers Ex 6 - 89] (puzzle: Exclusion 6)
[1]
  apparent KD of MS2 coat protein: 20.8 nM

## UUUUUCGAACAAGCUUCGUACAUGAGGAUCACCCAUGUCGGUAGAUUUGAGUAGGUUUGGAUGGAAGUUCGUCUUAU [JR_SV3TOV1_Sub086] (puzzle: Sensor v3, turn-off variant 1)
[3]
  apparent KD of MS2 coat protein: 28.2 nM
[1]
  apparent KD of MS2 coat protein: 65.9 nM
[4]
  apparent KD of MS2 coat protein: 32.9 nM

## UUUUACAUAGGAUAUAGUCUUUUUUACAUGAGGAUCACCCAUGUCUCUCUUUUUUUUUUUCUAGAAGGAUGUUUUU [JR_E5_Sub017] (puzzle: Exclusion 5)
[1]
  apparent KD of MS2 coat protein: 16.8 nM

## CCGUGGCAAGGAUAUACAUAGGAGAGGAAGGCAAGAGGAGGACAUGAGGAUCACCCAUGUAGAAGGUGCAGAUC [JR_Exclu2_Sub028] (puzzle: Exclusion 2)
[1]
  apparent KD of MS2 coat protein: 71.7 nM

## CGGCAUGAAGGAUAUACAUGAGGAUCACCCAUGUAAGUUACCUACAUGGCCUCACCUAGUAGAAGGUUAUCCGG [Eternabot (L2) Solution 72] (Eterna round: R97, puzzle: Exclusion 3)
Input ligand: FMN 200 uM
  apparent KD of MS2 coat protein: 94.4 nM
Input ligand: none
  apparent KD of MS2 coat protein: 28 nM

## GGCAGGCUUGAGGAUAUGCAUAGGCUAGGCCUAGCAGAAGGCAAGACAUGAGGAUCACCCAUGUGUUCCUUGUG [jl-ex6-4.35 ViennaUCT mod] (Eterna round: R97, puzzle: Exclusion 6)
Input ligand: FMN 200 uM
  apparent KD of MS2 coat protein: 545 nM
Input ligand: none
  apparent KD of MS2 coat protein: 322 nM

## AACACACAUGAGGAUCACCCAUGUGAGGAUAUCGUCGAGGAUGUAAUGCCAUCCGUGACGAGAAGGCACUUGGG [Exclusion 1 (Mod 3 solution 40 by Eternabot)] (Eterna round: R97, puzzle: Exclusion 1)
Input ligand: FMN 200 uM
  apparent KD of MS2 coat protein: 58.8 nM
Input ligand: none
  apparent KD of MS2 coat protein: 211 nM

## CGUCAGUGAGGAUAUGGUAACGUUUACAUGAGGAUCACCCAUGUUUCAUGGGACUAGAGACUAGAAGGCACUGACG [JR_Ex5_Sub030] (Eterna round: R97, puzzle: Exclusion 5)
Input ligand: FMN 200 uM
  apparent KD of MS2 coat protein: 439 nM
Input ligand: none
  apparent KD of MS2 coat protein: 416 nM

## AGAUGUAGAUACCGAUCCUACAUGAGGAUCACCCAUGUAGCUAGACGUGCCCGCGUCGCUCGUCAGACUACCAGUAG [salish99_TOv1_r3_090] (puzzle: Sensor v3, turn-off variant 1)
[3]
  apparent KD of MS2 coat protein: 252 nM
[1]
  apparent KD of MS2 coat protein: 248 nM
[4]
  apparent KD of MS2 coat protein: 269 nM

## UCUUAUUGCAAGGAUAUGCAAAUUAUUUUUUAAGCAGAAGGUGCAACAUGAGGAUCACCCAUGUUUCCGGGCAA [JR_E6_Sub038] (puzzle: Exclusion 6)
[1]
  apparent KD of MS2 coat protein: 16.8 nM

## AAAGUCGGAGGAUAUACAAUAGAUGACAAUAAAGUUGGAGUACAUGAGGAUCACCCAUGUAGAAGGCCGAGAAA [Swimmer becomes a laser gun] (puzzle: Exclusion 2)
[3]
  apparent KD of MS2 coat protein: 28.2 nM
[1]
  apparent KD of MS2 coat protein: 17.3 nM
[4]
  apparent KD of MS2 coat protein: 20.6 nM

## AGCUUUUUGUUUUUGGGUGACAUGAGGAUCACCCAUGUCUUAUGGGCCCAGUAGUAGUAAGAUAGAAGGGACCCACG [-20.8, -41.27, a 31%] (Eterna round: R97, puzzle: Sensor, turn-off variant 1)
Input ligand: FMN 200 uM
  apparent KD of MS2 coat protein: 639 nM
Input ligand: none
  apparent KD of MS2 coat protein: 731 nM

## CCCUCACAUGAGGAUCACCCAUGUCAGGAUAUCCAAGGCGAUCACCAAAAUAAAGCAAGGAGAAGGGACUUGGC [Enona] (Eterna round: R97, puzzle: Exclusion 1)
Input ligand: FMN 200 uM
  apparent KD of MS2 coat protein: 71.5 nM
Input ligand: none
  apparent KD of MS2 coat protein: 41.4 nM

## CUGAACCCGGUAGGAUAUAUUGUGGGCAAGCAUGGAACGACAUGAGGAUCACCCAUGUAAUUUAGGUAGAAGGGCCAAGAGAUU [Excl-NG2-LRO10] (Eterna round: R96, puzzle: Exclusion NG 2)
Input ligand: FMN 200 uM
  apparent KD of MS2 coat protein: 74.2 nM
[2]
  apparent KD of MS2 coat protein: 41.8 nM
Input ligand: none
  apparent KD of MS2 coat protein: 73.7 nM

## UUGUUCCGUGUAGGAUAUUGGCCUCCCUCGGGCCGAGAAGGACAUGAGGAUCACCCAUGUAUGCUAUUAUCGCGCGUGGCGCAC [Design 94] (Eterna round: R96, puzzle: Exclusion NG 1)
Input ligand: FMN 200 uM
  apparent KD of MS2 coat protein: 330 nM
[2]
  apparent KD of MS2 coat protein: 23.1 nM
Input ligand: none
  apparent KD of MS2 coat protein: 25.2 nM

## AGUUGGCGAGGAUAUACAUGAGGAUCACCCAUGUGAAAUCCAAGUGAGGAAAUGAAAAGUAGAAGGCGCUGACA [Mod of Mat 23 - Jieux - Exclusion 3] (Eterna round: R97, puzzle: Exclusion 3)
Input ligand: FMN 200 uM
  apparent KD of MS2 coat protein: 50 nM
Input ligand: none
  apparent KD of MS2 coat protein: 20.8 nM

## UUAAUGUGAGGAUAUCAGGUGUGCUAGCGUACUGGUACAUCUGAGAAGGCACAUGAGGAUCACCCAUGUUCCUG [JL-ex4-3.28 Brourd mod] (puzzle: Exclusion 4)
[1]
  apparent KD of MS2 coat protein: 20.6 nM

## GGUGGGAGGGAUGUGGUGUACAUGAGGAUCACCCAUGUGGUGGACGGGCGCGGGUGCGGGUUUUUUGUUCGUCUUGU [High Nucleotide Full Attached] (Eterna round: R97, puzzle: Sensor, turn-off variant 1)
Input ligand: FMN 200 uM
  apparent KD of MS2 coat protein: 131 nM
Input ligand: none
  apparent KD of MS2 coat protein: 159 nM

## ACAUGAGGAUCACCCAUGUGACCACGAUGGCUGAUGUAGACCUAGGAUAUGAGUGAAUAUCUAUCUCAGAAGGAGGUUGACUGG [Deportation 50 - Jieux - Exclusion NG 3] (Eterna round: R96, puzzle: Exclusion NG 3)
Input ligand: FMN 200 uM
  apparent KD of MS2 coat protein: 46.7 nM
[2]
  apparent KD of MS2 coat protein: 52.1 nM
Input ligand: none
  apparent KD of MS2 coat protein: 61.2 nM

## CAGGACAGAGGAUAUACAUAGAUACAGAUUCAUGUAGAACUACAUGAGGAUCACCCAUGUAGAAGGCUGUCCUG [Fiskers Ex 2 - 3] (Eterna round: R96, puzzle: Exclusion 2)
Input ligand: FMN 200 uM
  apparent KD of MS2 coat protein: 370 nM
[2]
  apparent KD of MS2 coat protein: 25 nM
Input ligand: none
  apparent KD of MS2 coat protein: 33.5 nM

## UGACGAGUAGGAUAUUGGACUUGCGACAUGAGGAUCACCCAUGUGACGUCAACGUGGCACCAAGAAGGGCUACGUC [Gelareusdi] (puzzle: Exclusion 5)
[1]
  apparent KD of MS2 coat protein: 47.7 nM

## UAUAAGCUAGGAUAUACUGGCACACAACUCAUAAAUCCACGACAUGAGGAUCACCCAUGUAGAAGGAGCAAAUA [EX2 A.27] (Eterna round: R97, puzzle: Exclusion 2)
Input ligand: FMN 200 uM
  apparent KD of MS2 coat protein: 18.8 nM
Input ligand: none
  apparent KD of MS2 coat protein: 14.4 nM

## GACGACUCGUCAGGAUAUGUAAACGAGCAAUUGACAGAAGGGACACUGUCGAGGGUACACAUGAGGAUCACCCAUGUACUCGUC [Eternabot solution 40] (Eterna round: R96, puzzle: Exclusion NG 1)
Input ligand: FMN 200 uM
  apparent KD of MS2 coat protein: 12.4 nM
[2]
  apparent KD of MS2 coat protein: 10.3 nM
Input ligand: none
  apparent KD of MS2 coat protein: 16.1 nM

Source: the supplement of paper PMC9170038
